Assays:
[1] = system: A. niger β-glucosidase; conditions: Yan and Lin, 1997; cited from earlier work
[2] = system: S. fibuligera β-glucosidase Bgl1; conditions: Yan and Lin, 1997; cited from earlier work
[3] = Subcellular fractionation and enzyme localization, activity assayed with pNPGlc; format: biochemical, Y. lipolytica
Method: Fractionation of yeast cells was carried out as described by Cummings and Fowler (1996), with slight modifications. Briefly, yeasts were cultivated until a cellular density of 6×10^7 cells/mL was reached. Then, to quantify total β-glucosidase activity, a 50 mL sample was taken and subjected to centrifugation at 8,000×g for 5 min at 4° C. thus isolating a cell pellet and supernatant. The cell pellet was disrupted in Tris-HCl buffer (50 mM, pH 7.4, 3 mM EDTA and 0.5 mM PMSF) using a MP FastPrep-24 Instrument (MP Biomedicals Inc.). β-Glucosidase activity in both the cell lysate and the supernatant was determined as described earlier in order to estimate total β-glucosidase activity. Using a second 50 mL yeast culture, a cell pellet containing approximately 2×10^8 cells/mL was obtained by centrifugation and then treated with zymolyase 100T at 10 mg/mL (Seikagaku corp roger) in 15 mL of sorbitol buffer (1 M sorbitol, 50 mM Tris-HCl, pH 7.4, 2 mM dithiothreitol, 10 mM MgCl2, 20 mM-sodium azide, 0.5 mM PMSF) at 30° C. with gentle shaking. Protoplast formation was monitored using a microscope until ≧99% of the cells was lysed when. SDS was added (1% SDS w/v). The solid protoplast fraction was then separated from the supernatant by centrifugation (1000 rpm for 5 min at 4° C.) and the latter was designated as the periplasmic fraction. The protoplasts were re-suspended in Tris-HCl buffer (50 mM Tris-HCl, pH 7.4) and disrupted by vortex in the presence of glass beads (0.4-0.45 mm). The homogenate was centrifuged (20,000×g for 2 h at 4° C.) and the supernatant and solid fractions were designated as the cytoplasmic and membrane fraction respectively. Prior to enzyme assays, the membrane fraction was suspended in citrate buffer.
Activity was assayed with pNPGlc.

[4] = β-Glucosidase activity, release of pNP from pNPGlc; format: biochemical; conditions: for Specific activity: pNPGlc
Method: β-Glucosidase activity was measured by quantifying the release of pNP (p-nitroplienol) from pNPGlc as described previously (Guo et al., 2011). One unit of pNPGlcase activity was defined as the amount of enzyme required to release 1 μmol pNP per min. Cellobiose phosphorylase activity was assayed by measuring the formation of Glc-1P from cellobiose as described previously (Reichenbecher et al., 1997). One unit of activity (U) was defined as the amount of enzyme required to release 1 μmol Glc-1P per min. All protein concentrations were measured using the Bradford method and bovine serum albumin as a standard (Bradford, 1976).

[5] = Stability depending on pH and temperature (residual glucosidase activity); format: physicochemical
Method: (§1) Optimal temperatures and pH for the activity of Bgl1-His6 and Bgl2 were determined using pNPGlc as the substrate. Assays were either performed at pH 5.0 and various temperatures (30-70° C.), or at 30° C. in variable pH conditions (2.0 to 8.0) using either 50 mM glycine-HCl (pH 2.0), 50 mM citrate/acetate (pH 3.0-7.2), or potassium phosphate (pH 7.0-8.2) buffer. When the temperature was varied, the pH of the citrate buffer was adjusted accordingly. Stability of Bgl1-His6 and Bgl2 depending on pH and temperature was analysed as follows: enzymes were incubated at 30° C. for up to 2 h at various pH values (2.0 to 8.0), or at various temperatures (30-70° C.) for up to 2 h in 50 mM citrate buffer, pH 5.0. Residual glucosidase activity was then assayed at 30° C. in 50 mM citrate buffer, pH 5.0.

[6] = Specific activity on cellobiose; format: biochemical
Text: (§2) When using aryl-substrates, the standard assay method was employed, simply replacing pNPGlc by another substrate as appropriate. For oligosaccharides, the release of glucose was quantified using an enzyme kit (D-Fructose/D-Glucose Assay Kit, liquid stable, Megazyme).

[7] = Optimal temperature and pH for activity; format: biochemical; conditions: pNPGlc
Method: as §1

[8] = Substrate specificity, aryl-glycoside; format: biochemical
Text: as §2

[9] = Michaelis-Menten kinetics (glucose release); format: biochemical; conditions: cellobiose
Text: as §2

**Q.** With `OC[C@H]1O[C@@H](O[C@H]2[C@H](O)[C@@H](O)C(O)O[C@@H]2CO)[C@H](O)[C@@H](O)[C@@H]1O` (stereo partly drawn) [Cellobiose] as the molecule, how does the Km [1] read?
**A.** Its Km is 2700 µM.

**Q.** What about the Km [2] of the same molecule?
**A.** The Km was 2800 µM.

B1: Bgl2: β-glucosidase of Y. lipolytica encoded by BGL2 (YALI0B14289g), SEQ ID NO: 6, secreted to the culture medium (protein, listed as Yarrowia lipolytica)
chain: MLAFVLLLTMLLAAALADPFSDKDAYKHSPPYYPAPEIGRVPTDLRWRAALKVAQGMVANMTLLEKVNITTGTGWEMGPCVGNTGTVERLGIKSLCLQDGPLGIRFADLITTFPAGITIASTFSRQLVRERGAAMGRENRRKGVDITLSPVVGPLGRHANGGRIWEGFSADPYLAGKLAAEAVTGIQGQNVMAVVKHMVGNEQEHFRQLGEWQGFGFKDLKQPLSSNIDDRTLNEAYLWPFADAVRANVGSVMCSYQQINGSQGCQNAHILNGKLKEEMGFQGFVMSDWLAQRSGVASVLAGLDMSMPGDGLVWADGVPLMGYELTRSVLNGTIDESRVDDMVTRILTPILYLSITPTDPNFSSWTNDTTSYKYYGAKAGGNVTVNRHIDVRDQYTTKAALDGANAALVLLKNEKKTLPLNPTNIGNLNIFGIGSKTGPLGAVCGENMQCSDGALIEGWGSGSVYPTDYQSPYDAIKERASKDNITIGGTTQSWGNLSNVEILSAAADASVVFVLSDSGESTGIVDGNIGDRNNLTLWHNGDEVVKAVASKNPNTIVVVTTVGPVNLEKWIDNPNVTAVLLTGPAGDFGGRAAASILFGDIAPSGKLPFTIAKNDTDYIPLTTKIPEDGLPQDYFTEGTLLDYKRFDENQVTPRFEFGYGLSYSNITVENLEARYAFPSIPEFLPTPFAPSNPNKPKNAFTPHANESVFPSDIDPLNKYVYPYLNDTSEIFSNETHYPYPEGYSSEQSNSTNINGGAVGGNPALWLSAVYIVHSVSNYGPYDTGVVTQMYIAFPQDNDDLKTAPRQLRGFERSELKVGERQGILYDVQWRDLAVWDVKLQSWRVQRGEYKVYVGHSSRDFVLTTSFTLK
**Q.** Which results are given for B1?
**A.** Relative enzyme activity, Cytoplasm ([3]; fraction: Cytoplasm): 4.8 ± 0.8%; Relative enzyme activity, Growth medium ([3]; fraction: Growth medium): 79.6 ± 1.2%; Relative enzyme activity, Membrane ([3]; fraction: Membrane): 3.7 ± 0.3%; Relative enzyme activity, Periplasm ([3]; fraction: Periplasm): 25.8 ± 1.0%; Relative enzyme activity, Total ([3]; fraction: Total): 100%; decrease in specific activity after deglycosylation ([4]; endoglycosidase H treatment, pNPG): 60%; Specific activity ([4]; purification step: Culture filtrate): 0.23 U/mg; Specific activity ([4]; purification step: Gel filtration): 25.8 U/mg; Specific activity ([4]; purification step: Ion exchange): 2.0 U/mg; Specific activity ([4]; purification step: Ultra filtration): 0.26 U/mg; activity on pNPGlc of purified enzyme ([4]; preliminary characterization, pNPGlc as substrate): 25.8 U/mg; enzyme activity remained ([5]; 30° C. and 40° C. at pH 5): 100%; pH range in which enzyme is stable ([5]; 30° C., up to 2 h): 3.5-7.0; enzyme activity remained ([5]; pH 4.0, 5.0 and 6.0 at 30° C.): 100%; temperature below which enzyme is stable ([5]; pH 5.0, up to 2 h): below 50 °C; specific activity on cellobiose [6]: 25 units/mg protein; pH of highest activity ([7]; 30° C.): 4.0; temperature of highest activity ([7]; pH 5.0): 50 °C; activity on pNP-α-D-glucopyranoside [8]: Neither enzyme displayed activity; activity on pNP-β-D-galactopyranoside [8]: Neither enzyme displayed activity; activity on pNP-β-D-cellobioside relative to pNPGlc ([8]; activity on pNPGlc as benchmark): 27%; KM fold lower than those of β-glucosidases from S. fibuligera and A. niger [9]: ~4 fold

— patent US20180044653A1, “Mutant Yeast Strain Capable of Degrading Cellobiose” (Institut National de la Recherche Agronomique, priority 2015, published 2018)
